Data on five molecules can be found in patent publication US20200239573A1 (CRESCENDO BIOLOGICS, published 2020).

Experiment [1] addresses T1, recombinant human PD-1 Fc chimera (human, UniProt Q15116 25-167).
T1 construct: Bought protein; also called human PD-1-huFc; huPD-1-Fc; not shown: human Fc
In words: HTRF inhibition; strep-tagged PD-L1 vs PD-1-Fc. The procedure: All samples and reagents were prepared in HTRF assay buffer containing PBS, 0.1% (w/v) BSA and 0.4M Potassium Fluoride. […] Total binding controls containing periplasmic extract sample buffer and non-specific binding controls containing excess untagged competitor were set up on each plate for data normalisation. Time-resolved fluorescent emission at 620 nm and 665 nm was measured following excitation at 337 nm on the BMG PHERAstar plate reader. Data was expressed as a % of the total binding control (% control) after subtraction of the background signal determined from the non-specific binding control wells.

Experiment [2] deals with T1, recombinant human PD-1 Fc chimera. In words: HTRF inhibition; biotinylated PD-L2-Fc vs Eu-cryptate PD-1-Fc. (In TR-FRET formats the signal depends on donor and acceptor labels being close together.)
Experiment [3] has as its target human PD-1 on primary human CD4+ T cells (human, UniProt Q15116 21-288). Nature of the experiment: flow cytometry on PHA-stimulated human CD4+ T cells (live cell gate). The method, then:
Binding of monovalent single domain antibodies and multivalent binding agents to T cells was measured using flow cytometry. […] T-cells were stimulated with 2.5 μg/ml PHA for 2-4 days in RPMI media supplemented with 10% FBS, 2 mM Glutamine, 1× Pen/Strep. Cells were transferred into 96 well plates (75000 per well), blocked for 10 mins with PBS/1% BSA, then incubated with serially diluted VH in staining buffer (PBS/1% BSA) for 1 hour at 4° C. Cells were washed with staining buffer by centrifugation then incubated with 10 μg/ml biotinylated Anti His antibody for 40 mins at 4° C. Cells were washed again then stained with Streptavidin Alexa Fluor-488 (10 μg/ml) and 1:5000 diluted Live Dead near IR stain (Molecular Probes cat no. L10119) for 30 mins at 4° C. After further washing cells were fixed and fluorescence measured by flow cytometry.

The target of experiment [4] is T2, human PD-1 expressed on cells (CHO human PD-1 cells) (human, UniProt Q15116 21-288). Nature of the experiment: cell-based or functional assay.
T2 sequence (Q15116 21-288): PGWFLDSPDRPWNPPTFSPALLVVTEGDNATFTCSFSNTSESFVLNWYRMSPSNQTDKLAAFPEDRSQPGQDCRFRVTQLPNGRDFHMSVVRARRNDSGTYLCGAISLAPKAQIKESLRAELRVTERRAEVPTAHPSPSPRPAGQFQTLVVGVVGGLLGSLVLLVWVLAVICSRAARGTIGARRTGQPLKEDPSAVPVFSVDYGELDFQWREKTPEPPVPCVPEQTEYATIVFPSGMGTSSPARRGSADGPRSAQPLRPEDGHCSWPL
Experiment [5] has as its target T2, human PD-1 expressed on cells (CHO …). In words: FMAT inhibition; 200 pM PD-L2 on CHO human PD-1 cells. The procedure:
(§1) All reagents and serially diluted VH were prepared in FMAT assay buffer. […] Plates were incubated for 2 hours at room temperature then fluorescence measured in the FL2 (502 nm-537 nm) and FL5 (677-800 nm) channels on the Mirrorball plate reader (TTP) following excitation at 488 nm and 640 nm. Data was expressed as a % of the total binding control (i.e. % control) after subtraction of the background signal determined from the non-specific binding control wells.

The target is the same in experiment [6]. Nature of the experiment: FMAT inhibition; 100 pM PD-L1-Fc on CHO human PD-1 cells. The method, then:
as §1

T1 sequence (Q15116 25-167 limits assumed, change not shown): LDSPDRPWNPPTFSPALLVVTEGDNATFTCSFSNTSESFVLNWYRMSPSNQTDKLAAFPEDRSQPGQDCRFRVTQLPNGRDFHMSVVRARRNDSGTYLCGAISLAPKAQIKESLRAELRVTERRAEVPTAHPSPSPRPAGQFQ
Chain of human PD-1 on primary human CD4+ T cells (Q15116 21-288): as the sequence (Q15116 21-288) above

B1: Humabody® 1.2 (VHH)
VHH: EVQLLESGGGLVKPGGSLRLSCAASGFTFSDYTMTWMRQAPGKGLEWVSYISTGGSIKYYTDSVKGRFTISRDNAKNSLYLQMNSLRADDTAVYYCAREAPLRLGESPHDAFDIWGQGTMVTVSS
notes: human VH single domain antibody
Regarding B1, the IC50 is 13 nM in experiment [1] and 39 nM in experiment [2]. In addition, in experiment [3], the “EC50 (read off the curve)” value was ~2 nM.

B2: Humabody® 1.63 (VHH)
VHH: EVQLVESGGGLVKPGGSLRLSCAASGFTFSDSSMTWMRQAPGKGLEWVSYISSGGGVKFYTDSVKGRFTISRDNAKNSLYLQMNSLRADDTAVYYCAREAPLRLGESPHDAFDISGQGTMVTVSS
notes: as for B1
Regarding B2, in experiment [4], the “Reporter Assay EC50” value is 12 nM. Moreover, the IC50 in experiment [5] stood at 6.9 nM; in experiment [6], 4.5 nM.

B3: Humabody® 1.65 (VHH)
VHH: QVQLVESGGGLVKPGGSLRLSCAASGFTFSDSSMTWMRQAPGKGLEWVSYISSGGGVKFYADSVKGRFTISRDNAKNSLYLQMNSLRADDTAVYYCAREAPLRLGESPHDAFDISGQGTMVTVSS
notes: as for B1
In the case of B3, the “Reporter Assay EC50” value in experiment [4] amounted to 11 nM. The results for the IC50 in experiment [5] and in experiment [6] were 8.5 nM and 5.8 nM, respectively.

B4: Humabody® 1.13 (VHH)
VHH: EVQLLESGGGLVKPGGSLRLSCAASGFTFSDYTMTWMRQAPGKGLEWVSYISTGGTIKYYTDSVKGRFTISRDNAKNSLYLQMNSLRADDTAVYYCAREAPLRLGESPHDAFDIWGQGTMVTVSS
notes: as for B1
Turning to B4, the IC50 in experiment [1] worked out at 17 nM; in experiment [2], 10 nM.

B5: Humabody® 1.62 (VHH)
VHH: QVQLVESGGGLVKPGGSLRLSCAASGFTFSDSSMTWMRQAPGKGLEWVSYISSGGAVKFYTDSVKGRFTISRDNAKNSLYLQMNSLRADDTAVYYCAREAPLRLGESPHDAFDISGQGTMVTVSS
notes: as for B1
With B5, in experiment [4], the “Reporter Assay EC50” value was 14 nM. Further, the IC50 is 10 nM in experiment [5] and 5.7 nM in experiment [6].

Usually IC50 stands for the midpoint of a concentration-inhibition curve. What is called EC50 (read off the curve) is the concentration that produces a half-maximal response. The low end stands for an effect from little substance, the high end for a need for much substance.
